According to US20080215402A1, “Methods and Systems for Evaluating Interaction of Medical Products and Dependence on Demographic Variables” (priority 2005, published 2008):
Where two headings read alike, the source gives them in different places. Marks after values point to notes of the source that are not given here.

Assays:
[1] = orthogonalized contingency lattice analysis of AERS reports, reference condition rhabdomyolysis; details: for Z (z-score, rhabdomyolysis vs non-rhabdomyolysis randomized datasets): * = significant at Bonferroni-corrected 5% level (|z| > 12); for Nrhabdo (subset size based on the rhabdomyolysis dataset): records listing the drug(s) and excluding the other drugs, NR=11,773
Experimental: As a consequence, it should be noted that all of these subsets are mutually exclusive, with no patient appearing in more than one subset.
The results obtained from the orthogonalized contingency lattice just described are analyzed exactly as in the case of the basic contingency lattice described previously.
As before, significance is assessed using the Bonferroni-corrected z-score analysis described earlier herein. The primary difference between the results obtained with the original contingency lattice construction and those obtained with the orthogonalized construction lies in the fact that the orthogonalized patient subsets are mutually exclusive.

[2] = human
[3] = two-way interaction analysis of AERS records, Infliximab and Methotrexate with pulmonary fibrosis; parameters: species or system patients; details: records listing both drugs vs 100 random samples of each reference population; FIG. 6
Text: In the following description, let N denote the size of the first subset listed above—i.e., the total number of records in the available database listing both drugs. The interaction analysis considered here begins by computing NX, the number of times that Reaction X appears in this first record subset, and the objective of the analysis is to provide reference numbers to answer the following questions:
Each of these questions defines a collection of random reference sets that may be used to provide answers. Specifically, M random samples, each of size N, are drawn from the reference population defined by each of these questions (i.e., Drug A alone, Drug B alone, and neither drug), and the number of records in each random sample that also lists Reaction X is recorded.

[4] = N=898 tuberculosis patients vs 200 random samples; Bonferroni-corrected 5% threshold; FIG. 7
[5] = reaction: antinuclear antibody positive
[6] = reaction: crohn's disease aggravated
[7] = reaction: disseminated tuberculosis
[8] = reaction: dna antibody nos positive
[9] = reaction: drug withdrawal syndrome
[10] = reaction: infusion related reaction
[11] = reaction: pharmaceutical product complaint
[12] = reaction: pneumocystis carinii pneumonia
[13] = reaction: pulmonary tuberculosis
[14] = reaction: rheumatoid arthritis aggravated
[15] = reaction: systemic lupus erythematosus

Compound: Cc1ccc(C)c(OCCCC(C)(C)C(=O)O)c1 [Case L, gemfibrozil]
- Nref^+ (maximum subset size from the 200 randomly generated non-rhabdomyolysis datasets) [1]: 55
- Nref^− (minimum subset size from the 200 randomly generated non-rhabdomyolysis datasets) [1]: 21
- PChebyshev (probability derived from the Chebyshev inequality) [1]: 5.36 × 10^−4
- association with rhabdomyolysis (in words) [1]: only weak evidence
- Z (z-score, rhabdomyolysis vs non-rhabdomyolysis randomized datasets) ([1]; listed as L BP): 43*
- Z (z-score, rhabdomyolysis vs non-rhabdomyolysis randomized datasets) ([1]; listed as Lopid): 43
- Nrhabdo (subset size based on the rhabdomyolysis dataset) [1]: 306
- Nref^+ (maximum subset size from the 200 randomly generated non-rhabdomyolysis datasets) [2]: 72
- Nref^− (minimum subset size from the 200 randomly generated non-rhabdomyolysis datasets) [2]: 33
- Nrhabdo (subset size based on the rhabdomyolysis dataset) [2]: 2982
- PChebyshev (probability derived from the Chebyshev inequality) [2]: 6.16 × 10^−6

Compound: COC(=O)[C@H](c1ccccc1Cl)N1CCc2sccc2C1 [Case P, clopidogrel bisulfate]
- Nref^+ (maximum subset size from the 200 randomly generated non-rhabdomyolysis datasets) [1]: 169
- Nref^− (minimum subset size from the 200 randomly generated non-rhabdomyolysis datasets) [1]: 109
- PChebyshev (probability derived from the Chebyshev inequality) [1]: 2.20 × 10^−1
- Z (z-score, rhabdomyolysis vs non-rhabdomyolysis randomized datasets) [1]: 2
- Nrhabdo (subset size based on the rhabdomyolysis dataset) [1]: 163
- Nref^+ (maximum subset size from the 200 randomly generated non-rhabdomyolysis datasets) [2]: 177
- Nref^− (minimum subset size from the 200 randomly generated non-rhabdomyolysis datasets) [2]: 114
- Nrhabdo (subset size based on the rhabdomyolysis dataset) [2]: 465
- PChebyshev (probability derived from the Chebyshev inequality) [2]: 1.43 × 10^−3
- association with rhabdomyolysis (in words) [2]: significant at the Bonferroni-corrected 5%
- z (z-score, rhabdomyolysis vs non-rhabdomyolysis datasets) [2]: 26*

Compound: CN(Cc1cnc2nc(N)nc(N)c2n1)c1ccc(C(=O)N[C@@H](CCC(=O)O)C(=O)O)cc1 [Methotrexate, methotrexate]
- drug interaction with respect to pulmonary fibrosis (in words) [3]: responsible for the large number of cases seen when both drugs are present

Compound: infliximab
- number of adverse events that exceed the Bonferroni-corrected 5% significance threshold (AERS): 365
- Uab (designation: bone & joint tuberculosis): 1.09 × 10^5
- Uab (designation: bone amp joint tuberculosis): 1.34 × 10^6
- Uab (designation: disseminated tuberculosis): 6.22 × 10^117
- Uab (designation: lymph node tuberculosis): 1.57 × 10^8
- Uab (designation: lymph node tuberculosis nos): 4.98 × 10^15
- Uab (designation: peritoneal tuberculosis): 8.61 × 10^9
- Uab (designation: pulmonary tuberculosis): 1.11 × 10^109
- Uab (designation: spleen tuberculosis): 1.47 × 10^12
- Uab (designation: tuberculosis): 1.18 × 10^74
- Uab (designation: tuberculosis gastrointestinal nos): 2.85 × 10^10
- Uab (designation: tuberculosis nos): >10^308
- Uab (designation: tuberculosis reactivated): 3.40 × 10^6
- NAB [5]: 65
- RAB [5]: 12.93
- log10 UAB (Statistical Unexpectedness) [5]: 51.53
- NAB (reaction: basal cell carcinoma): 88
- RAB (reaction: basal cell carcinoma): 21.17
- log10 UAB (Statistical Unexpectedness) (reaction: basal cell carcinoma): 92.07
- NAB (reaction: crohn's disease): 60
- RAB (reaction: crohn's disease): 11.26
- log10 UAB (Statistical Unexpectedness) (reaction: crohn's disease): 43.74
- NAB [6]: 45
- RAB [6]: 22.02
- log10 UAB (Statistical Unexpectedness) [6]: 48.51
- NAB [7]: 93
- RAB [7]: 30.00
- log10 UAB (Statistical Unexpectedness) [7]: 117.79
- NAB [8]: 59
- RAB [8]: 24.01
- log10 UAB (Statistical Unexpectedness) [8]: 66.39
- NAB [9]: 2
- RAB [9]: 0.02
- log10 UAB (Statistical Unexpectedness) [9]: 44.68
- NAB (reaction: flushing): 254
- RAB (reaction: flushing): 4.37
- log10 UAB (Statistical Unexpectedness) (reaction: flushing): 83.41
- NAB [10]: 63
- RAB [10]: 19.32
- log10 UAB (Statistical Unexpectedness) [10]: 62.93
- NAB (reaction: listeriosis): 41
- RAB (reaction: listeriosis): 30.26
- log10 UAB (Statistical Unexpectedness) (reaction: listeriosis): 52.60
- NAB (reaction: lupus-like syndrome): 179
- RAB (reaction: lupus-like syndrome): 27.45
- log10 UAB (Statistical Unexpectedness) (reaction: lupus-like syndrome): 215.11
- NAB (reaction: medication error): 17
- RAB (reaction: medication error): 0.07
- log10 UAB (Statistical Unexpectedness) (reaction: medication error): 75.78
- NAB [11]: 6
- RAB [11]: 0.05
- log10 UAB (Statistical Unexpectedness) [11]: 41.69
- NAB [12]: 66
- RAB [12]: 9.58
- log10 UAB (Statistical Unexpectedness) [12]: 43.17
- NAB (reaction: pneumonia nos): 369
- RAB (reaction: pneumonia nos): 2.92
- log10 UAB (Statistical Unexpectedness) (reaction: pneumonia nos): 71.42
- NAB [13]: 99
- RAB [13]: 23.31
- log10 UAB (Statistical Unexpectedness) [13]: 109.04
- NAB (reaction: pyrexia): 596
- RAB (reaction: pyrexia): 1.80
- log10 UAB (Statistical Unexpectedness) (reaction: pyrexia): 41.44
- RAB (reaction: rhabdomyolysis): 0.08
- log10 UAB (Statistical Unexpectedness) (reaction: rhabdomyolysis): 58.33
- NAB [14]: 60
- RAB [14]: 12.27
- log10 UAB (Statistical Unexpectedness) [14]: 46.14
- NAB (reaction: rigors): 252
- RAB (reaction: rigors): 2.65
- log10 UAB (Statistical Unexpectedness) (reaction: rigors): 41.86
- NAB (reaction: sepsis nos): 268
- RAB (reaction: sepsis nos): 3.28
- log10 UAB (Statistical Unexpectedness) (reaction: sepsis nos): 61.87
- NAB [15]: 192
- RAB [15]: 11.24
- log10 UAB (Statistical Unexpectedness) [15]: 137.84
- NAB (reaction: tuberculosis): 64
- RAB (reaction: tuberculosis): 25.34
- log10 UAB (Statistical Unexpectedness) (reaction: tuberculosis): 74.07
- NAB (reaction: tuberculosis nos): 275
- RAB (reaction: tuberculosis nos): 29.00
- log10 UAB (Statistical Unexpectedness) (reaction: tuberculosis nos): >308.00
- association with tuberculosis by orthogonalized lattice analysis (in words) [4]: only strong positive association with tuberculosis
